According to patent publication US20230383007A1 (BIOSION, published 2023):

Experiments:
human TROP2-his protein [1] = biological target: T1, human TROP2-his protein (human, UniProt P09758 27-274); test: competitive ELISA: soluble benchmark pre-mixed with biotin labeled human TROP2-his, added to plate coated with the benchmark (self-competition); unit taken from the x axis (ng/mL)
T1 construct: also called biotin labeled human TROP2-his protein
T1 sequence: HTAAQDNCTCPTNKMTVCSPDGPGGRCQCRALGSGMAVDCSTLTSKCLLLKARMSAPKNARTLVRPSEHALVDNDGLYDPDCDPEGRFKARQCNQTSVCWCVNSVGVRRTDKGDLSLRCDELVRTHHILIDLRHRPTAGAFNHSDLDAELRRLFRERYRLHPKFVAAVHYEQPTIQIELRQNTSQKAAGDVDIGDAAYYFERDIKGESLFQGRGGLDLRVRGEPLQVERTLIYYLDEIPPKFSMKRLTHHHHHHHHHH
Experimental: (§1) The anti-TROP2 antibodies were tested for their epitope binding in a competitive ELISA assay. Briefly, 100 μl of the benchmark at 1 μg/mL in PBS was coated on 96-well micro plates for 2 hours at 37° C. ELISA plates were washed once with wash buffer (PBS+0.05% v/v Tween-20, PBST) and then blocked with 200 μl blocking buffer (5% w/v non-fatty milk in PBST) for 2 hours at 37° C. While blocking, the anti-TROP2 antibodies of the disclosure or controls were diluted with biotin labeled human TROP2-his protein (SEQ ID NO: 16, 34 ng/mL in 2.5% w/v non-fatty milk in PBST), starting at 80 nM with a 5-fold serial dilution, and incubated at room temperature for 40 minutes. After plate washing 4 times, the antibody/TROP2-his protein mixtures were added to benchmark coated plates, 100 μl per well. After incubation at 37° C. for 40 minutes, plates were washed 4 times again using wash buffer. Then the plates were added and incubated with 100 μl Peroxidase Streptavidin (1:10000 dilution in PBST buffer, Jackson Immunoresearch, Cat #016-030-084) for 40 minutes at 37° C. Plates were washed again using wash buffer. […] The absorbance of each well was read on a microplate reader using dual wavelength mode with 450 nm for TMB and 630 nm as the reference wavelength, and the OD (450-630) values were plotted against antibody concentration. Data was analyzed using Graphpad Prism software and IC₅₀ values were reported.

human TROP2-his protein [2] = biological target: T1, human TROP2-his protein; test: competitive ELISA: soluble benchmark pre-mixed with biotin labeled human TROP2-his, added to plate coated with the benchmark (self-competition); unit taken from the x axis (nM)
human TROP2-his protein [3] = biological target: T1, human TROP2-his protein; test: competitive ELISA: antibody pre-mixed with biotin labeled human TROP2-his, added to plate coated with the benchmark (sacituzumab analog); unit taken from the x axis (nM)
human TROP2-his protein [4] = biological target: T1, human TROP2-his protein; test: SPR Biacore T200; antibody captured on anti-human IgG chip, 40 nM human TROP2-his as analyte
From the text: (§2) The purified anti-TROP2 mouse monoclonal antibodies (mAbs) were characterized for binding affinity and binding kinetics by Biacore T200 system (GE healthcare, Pittsburgh, PA, USA). Briefly, goat anti-human IgG (GE healthcare, Cat #BR100839, Human Antibody Capture Kit) was covalently linked to a CM5 chip (carboxy methyl dextran coated chip from GE healthcare #BR100530) via primary amines, using a standard amine coupling kit (GE healthcare, Pittsburgh, PA, USA) provided by Biacore. Un-reacted moieties on the chip (biosensor) surface were blocked with ethanolamine. The anti-TROP2 antibodies of the disclosure and the benchmark at the concentration of 2 μg/ml were respectively flowed onto the chip at a flow rate of 10 μL/min. Then, serially diluted human TROP2-his protein (prepared in-house with SEQ ID NO: 16), or cynomolgus TROP2-his protein (prepared in-house with SEQ ID NO: 19), 2-fold dilution in HBS-EP⁺ buffer (provided by Biacore) starting at 160 nM, were flowed onto the chip at a flow rate of 30 μL/min. The antigen-antibody association kinetics was followed for 2 minutes and the dissociation kinetics was followed for 10 minutes. The association and dissociation curves were fit to a 1:1 Langmuir binding model using BIAcore evaluation software.
For the BIAcore test, cell supernatants containing humanized 01-9F-CDR-V11 antibodies were respectively flowed onto the chip at a flow rate of 10 μL/min, and 40 nM human TROP2-his protein (prepared in-house with SEQ ID NO: 16) in HBS-EP⁺ buffer (provided by Biacore) were flowed onto the chip at a flow rate of 30 μL/min.

human TROP2-his protein [5] = biological target: T1, human TROP2-his protein; test: competitive ELISA: antibody pre-mixed with biotin labeled human TROP2-his, added to plate coated with the benchmark (sacituzumab analog); unit taken from the x axis (ng/mL)
Experimental: as §1

human TROP2-his protein [6] = biological target: T1, human TROP2-his protein; test: SPR Biacore; antibody captured on anti-human IgG chip, 40 nM human TROP2-his as analyte
From the text: as §2
For the BIAcore test, cell supernatants containing the 01-9F-Fc variants were respectively flowed onto the chip instead of the purified anti-TROP2 antibodies, at a flow rate of 10 μL/min, and 40 nM human TROP2-his proteins (prepared in-house with SEQ ID NO: 16) in HBS-EP⁺ buffer (provided by Biacore), instead of serially diluted human TROP2-his proteins, were flowed onto the chip at a flow rate of 30 μL/min.

B1: sacituzumab (benchmark, an analog of sacituzumab, in house made) (antibody, human IgG1, kappa, V domains shown)
VH: SVQLQQSGSELKKPGASVKVSCKASGYTFTNYGMNWVKQAPGQGLKWMGWINTYTGEPTYTDDFKGRFAFSLDTSVSTAYLQISSLKADDTAVYFCARGGFGSSYWYFDVWGQGSLVTVSS
VL: DIQLTQSPSSLSASVGDRVSITCKASQDVSIAVAWYQQKPGKAPKLLIYSASYRYTGVPDRFSGSGSGTDFTLTISSLQPEDFAVYYCQQHYITPLTFGAGTKVEIKR
notes: also called BM; BM1
IC50 (human TROP2-his protein [1]): 0.0543 µg/mL | IC50 (human TROP2-his protein [2]): 0.563 nM

B2: single domain antibody 01-9F (VHH)
VHH: QVQLVESGGGSVQAGGSLRLSCVVSGLPYERYCVAWFRQGPGKEREGVARILSDGTTSYSDSVKGRFTISKDNAKNTLYLQMNSLKSEDTATYYCAAEAFRPFTPSDGDCTTVLGIDYWGKGTPVTVSS
IC50 (human TROP2-his protein [3]): 0.247 nM | Kd (human TROP2-his protein [4]): 0.188 nM | koff (human TROP2-his protein [4]): 0.000224 s⁻¹ | kon (human TROP2-his protein [4]): 1.19e+06 M⁻¹ s⁻¹ | IC50 (human TROP2-his protein [5]): 0.0274 µg/mL | Kd (human TROP2-his protein [6]): 0.202 nM | koff (human TROP2-his protein [6]): 0.000101 s⁻¹ | kon (human TROP2-his protein [6]): 502000 M⁻¹ s⁻¹
